From patent publication US20090246248A1, “COATING COMPOSITIONS HAVING IMPROVED PERFORMANCE” (priority 2008, published 2009) come the findings set out here.

Numbered stars: 1 amine (or outer) side, 2 acyl side, 3 side chain; on linkers, the order of the positions; unused ones are H or OH. Square brackets hold non-standard residues; d marks the D form. Ends that are not written are not given here. * marks the point of attachment. (AUD)6 = six aminoundecanoic acid units between the two peptides, O=C(CCCCCCCCCCNC(=O)CCCCCCCCCCNC(=O)CCCCCCCCCCN[*:1])NCCCCCCCCCCC(=O)NCCCCCCCCCCC(=O)NCCCCCCCCCCC(=O)[*:2]; Biotin = O=C1N[C@H]2[C@H](CS[C@H]2CCCCC(=O)*)N1; P10 = 10 unit polyethylene glycol polymer; Myristoyl = CCCCCCCCCCCCCC(=O)*; Lauroyl = CCCCCCCCCCCC(=O)*; linker = not defined here; (MP)2 = not defined here; AEEA = NCCOCCOCC(=O)O Some results are limits rather than exact numbers.

To fix the notation:
B1: SEQ ID NO 149 (peptide)
peptide: [code s][code s]GGVGGWALFETLRGKEV[code s][code r][P10]YFRAFRKFVKPFKRAFKGSSGK(Biotin)-NH2
modifications: not fully specified; printed as ssGGVGGWALFETLRGKEVsr-P10-YFRAFRKFVKPFKRAFK-GSSGK-B-NH2
B2: SEQ ID NO 147 (peptide)
peptide: YFRAFRKFVKPFKRAFK[(MP)2][code s][code s]GGVGGWALFETLRGKEV[code s][code r]GSSGK(Biotin)-NH2
modifications: not fully specified; printed as YFRAFRKFVKPFKRAFK-(MP)2-ssGGVGGWALFETLRGKEVsr-GSSGK-B-NH2; reading uncertain
B3: SEQ ID NO 153 (peptide)
peptide: [code s][code s]GGVGGWALFETLRGKEV[code s][code r][P10]SWWGFWNGSAAPVWSRGSSGK(Biotin)-NH2
modifications: not fully specified; printed as ssGGVGGWALFETLRGKEVsr-P10-SWWGFWNGSAAPVWSR-GSSGK-B-NH2
B4: SEQ ID NO 150 (peptide)
peptide: SWWGFWNGSAAPVWSRGSSG[code s][code s]GGVGGWALFETLRGKEV[code s][code r]GSSGK(Biotin)-NH2
modifications: not fully specified; printed as SWWGFWNGSAAPVWSR-GSSG-ssGGVGGWALFETLRGKEVsr-GSSGK-B-NH2

One data set has as its target T1, GDF-7 (R&D SYSTEMS).
T1 sequence (Q7Z4P5 322-450, species assumed, looked up): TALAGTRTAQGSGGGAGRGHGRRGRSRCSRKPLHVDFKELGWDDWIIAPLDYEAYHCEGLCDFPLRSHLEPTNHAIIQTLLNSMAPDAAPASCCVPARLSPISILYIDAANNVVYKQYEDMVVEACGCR
Put plainly: GDF-7 capture on peptide-coated sutures; anti-GDF-7 antibody/AP, pNPP read-out; relative EC50; lower limit told of the whole group.
Conditions: not given
As to B1, the EC50 (usually the midpoint of the concentration-response curve) is > 20 nM. For the molecule B2, the EC50 was > 20 nM. In the case of [code s][code s]GGVGGWALFETLRGKEV[code s][code r]GSSGYFRAFRKFVKPFKRAFKGSSGK(Biotin)-NH2 (not fully specified) [SEQ ID NO 155], the EC50 is > 20 nM. On the same count and under the same terms, for B3 the value was > 20 nM. On to B4, for which the 50% effective concentration (EC50) is > 20 nM. For [code s][code s]GGVGGWALFETLRGKEV[code s][code r][(AUD)6]SWWGFWNGSAAPVWSRGSSGK(Biotin)-NH2 (not fully specified) [SEQ ID NO 154], the half-maximal effective concentration (EC50) is > 20 nM.

[code s][code s]GGVGGWALFETLRGKEV[code s][code r][(MP)2]YFRAFRKFVKPFKRAFKGSSGK(Biotin)-NH2 (not fully specified; reading uncertain) [SEQ ID NO 148]: the EC50 is > 20 nM. Turning to [code s][code s]GGVGGWALFETLRGKEV[code s][code r][(MP)2]SWWGFWNGSAAPVWSRGSSGK(Biotin)-NH2 (not fully specified; reading uncertain) [SEQ ID NO 152], the EC50 is > 20 nM.

Test system in a further data set: not given
Assay: not given
It is filed as binding. Conditions: 18 hour incubation in 10% BSA+10 mM guanidinium chloride; FIG. 1. The source says: In this example, illustrated are unexpected beneficial properties of the composition of the invention, including but not limited to, one or more improved biophysical properties. Such one or more unexpected beneficial properties of a composition of the invention may comprise an increase in stability. An increase in stability may comprise any one or more of resistance to chemical denaturation, resistance to proteolytic degradation, improved retention to a substrate (e.g., resistance to being competed off a substrate to which it is bound, such as by proteins or other biomolecules found in body tissues). Thus, to ascertain a beneficial property of a composition of the invention, it is compared to the properties of a component of the composition-namely, a substrate-binding peptide by itself (e.g., without fatty acid covalently coupled thereto). An assay was developed that, from our direct comparisons (see, e.g., discussion of FIG. 2 below, and Example 7 herein), mimicked the effect of incubation of substrate-binding peptide with human plasma on stability of binding of a substrate-binding peptide to its substrate. The assay utilized incubations in the presence of 10% bovine serum album (BSA) with 10 mM guanidinium chloride. The high BSA concentration mimics the elevated albumin content of human plasma, and the guanidinium chloride is used to compete with any charged interactions involved in binding of the substrate-binding peptide to its substrate.
In this assay, two immunoassay plates were prepared for a “side-by-side” comparison of binding of a test sample (substrate-binding peptide or composition of the invention) to its substrate with or without the presence of 10% BSA with 10 mM guanidinium chloride. The wells of each 96-well polypropylene plate were incubated with 350 μl BSA 1% in PBS for 30 minutes at 20° C. with 500 rpm shaking. To each well was added one acetone-cleaned 3/32″ 316LVM stainless steel bead, followed by addition of dilutions in PBS of the test sample in a range of concentrations starting from 10 μM. Final volume in each well was 200 μl. The plates were incubated for 1 hour at 20° C. with 500 rpm shaking to allow for the binding to occur. The beads were washed 3 times with 250 μl PBS using a plate washer. […]
In the immunoassay for detecting binding without the presence of 10% BSA with 10 mM guanidinium chloride, added to each well was 200 μl of streptavidin AP (AP is alkaline phosphatase) at 1/200 in TBS+1% BSA. […] When color has developed, each well was read at OD405 nm in endpoint mode using a plate reader. […] When color has developed, the wells were read at OD405 nm in endpoint mode using a plate reader. […]
Take “119: Fmoc-NH-(PEG)27-CO2H covalently coupled to a peptide having the amino acid sequence of SEQ ID NO:122 (PEGylated peptide) (SSHRTNHKKNNPKKKNKTRGSSGK; also: Fmoc-NH-(PEG)27-CO2H covalently coupled, site not given here) [Compound 119]”: the “retention of binding compared to substrate-binding peptide alone (SEQ ID NO:122)” value was “failed to promote retention”. As for “120: amino acid sequence YWAWAYAW (SEQ ID NO:129) covalently coupled to a peptide having the amino acid sequence of SEQ ID NO:122 (YWAWAYAWSSHRTNHKKNNPKKKNKTRGSSGK) [Compound 120]”, the “retention of binding compared to substrate-binding peptide alone (SEQ ID NO:122)” value was “failed to promote retention”.

Test system in another data set: not listed separately
Put plainly: Critical micelle concentration (methyl orange assay). It is filed as physicochemical. Conditions: pH 7 PBS, A484. As for the experimental part: Formation of a composition of the invention, and evidence of macromolecular network formation, may be monitored or quantified by any means known in the art. In this example, macromolecular formation was detected using a standard assay for determining critical micelle concentration (“CMC”). In this assay, a solution containing the composition of the invention (in a range of concentrations in pH 7 phosphate buffered saline (“PBS”)) was mixed with a solution of methyl orange (0.04 mM in PBS), and the absorbance of the mixture was measured at 484 nm (A484). CMC is the concentration at which a sharp decrease in absorbance at A484 is observed, a change in the optical properties of methyl orange when trapped in a hydrophobic phase, such as caused by self-association as a macromolecular network (Table 7, “CMC”). Also included in this assay were an assay control peptide having an amino acid sequence of SEQ ID NO:122 (Table 7, “Control”), and compound 119 (a PEGylated peptide, the peptide having an amino acid sequence of SEQ ID NO:122, as described in more detail in Example 6 herein).
Take “119: Fmoc-NH-(PEG)27-CO2H covalently coupled to a peptide having the amino acid sequence of SEQ ID NO:122 (PEGylated peptide) (SSHRTNHKKNNPKKKNKTRGSSGK; also: Fmoc-NH-(PEG)27-CO2H covalently coupled, site not given here) [Compound 119]”: the CMC is given as >>10 μM. Same read-out and setting: for “LAU-SEQ ID NO: 122 (Lauroyl-SSHRTNHKKNNPKKKNKTRGSSGK) [Compound 126]” the value was 0.37 µM; for “MYR-SEQ ID NO: 122 (Myristoyl-SSHRTNHKKNNPKKKNKTRGSSGK) [Compound 125]”, 0.123 µM; for “MYR-linker-SEQ ID NO: 122 ({Myristoyl-linker}-SSHRTNHKKNNPKKKNKTRGSSGK; reading uncertain) [Compound 127]”, 0.123 µM. With “PALM-PALM-PALM-linker-SEQ ID NO: 122 (SSHRTNHKKNNPKKKNKTRGSSGK; also: three palmitoyl groups, place not given here, linker, place and nature not given here) [Compound 129]”, the CMC turned out to be 0.123 µM. For “SSHRTNHKKNNPKKKNKTRGSSGK [SEQ ID NO:122, assay control peptide]”, the CMC is given as >>10 μM. Molecule “[MYR]2-K-linker-SEQ ID NO: 122 (SSHRTNHKKNNPKKKNKTRGSSGK; also: lysine bearing two myristoyl groups, place not given here, linker, place and nature not given here) [Compound 128]” displayed a CMC of 0.123 µM.

Test system in a further data set: not listed separately
Put plainly: Vancomycin loading onto titanium bead (HPLC of HCl eluate). Conditions: mixture with vancomycin, 30 mins 20° C., washed with PBS. As for the experimental part: The experimental procedure used for the embodiments described above was as follows. […] All three components were mixed and then applied to the metal bead. […] All three components were mixed and then applied to the metal bead. […] The mixtures were applied to the metal beads and incubated for 30 mins at 20° C. with 700 rpm shaking. The beads were washed three times with 350 ul PBS. Beads were analyzed as follows: 200 ul of 100 mM HCl was added to each bead and incubated for 30 mins at 20° C. with 1,000 rpm shaking. The eluate from each bead was analyzed by HPLC using Phenomenex Luna 3 um column, 50×4.60 mm. Output was compared to a standard curve for vancomycin to determine the amount of vancomycin retained onto the metal bead.
As to “MA-AHx-SSCLIDIYGVCHNFDAY-miniPeg-miniPeg-YFRAFRKFVKPFKRAFKGSSK(Biotin) [SEQ ID NO: 165]”, the “Vancomycin Load” value is listed as 1,700 pmol/cm2. As for “MA-Ahx-SSCLIDIYGVCHNFDAY-miniPeg-miniPeg-HKKNNPKKKNKTRGSSK(Biotin) [SEQ ID NO: 164]”, the “Vancomycin Load” value is 278 pmol/cm2.

Regarding “Pyrene-butyric-SSCLIDIYGVCHNFDAY-miniPeg-miniPeg-HKKNNPKKKNKTRGSS-K(Biotin) [SEQ ID NO: 166]”, the “Vancomycin Load” value was 173 pmol/cm2.

As to “RRRRRRR-PSSHRTNHKKNNPKKKNKTRGP-RRRRRRR-K(biotin) [SEQ ID NO: 156]”, the “Vancomycin Load” value is listed as <10 pmol/cm2. For the molecule “SSSCLIDMYGVCHNFDGAYDSSRG-miniPeg-miniPeg-SSHRTNHKKNNPKKKNKTRGSSGK (SSSCLIDMYGVCHNFDGAYDSSRG[AEEA][AEEA]SSHRTNHKKNNPKKKNKTRGSSGK; not fully specified (bridges); printed as SSSCLIDMYGVCHNFDGAYDSSRG-miniPeg-miniPeg-SSHRTNHKKNNPKKKNKTRGSSGK; cysteine pairing not given here) [SEQ ID NO: 163]”, the “Vancomycin Load” value was determined as 54 pmol/cm2.
